Article PMC3484393, “Unwinding of synthetic replication and recombination substrates by Srs2”

Key:
Srs2ΔC (Srs2 1-898) [1] = target: T1, Srs2ΔC (Srs2 1-898) (Saccharomyces cerevisiae? (budding …, UniProt P12954 1-898)); test: competition; FITC-3' overhang competitor releasing 50% of Cy5-ssDNA (N1) from 150 nM Srs2ΔC; 30 mM Tris pH 7.5, 1 mM DTT, 0.1 mg/ml BSA, 100 mM KCl, 3 nM DNA, 30 °C 10 min; 7% native PAGE in 0.5x TBE; settings: protein: recombinant; tags: His9 (pull-down section says His6); label: fluorescein (FITC), end label
Srs2ΔC (Srs2 1-898) [2] = target: T1, Srs2ΔC (Srs2 1-898); test: EMSA; much higher affinity than other substrates; 3 nM DNA; 30 mM Tris pH 7.5, 1 mM DTT, 0.1 mg/ml BSA, 100 mM KCl, 3 nM DNA, 30 °C 10 min; 7% native PAGE in 0.5x TBE; settings: protein: recombinant, tags: His9 (pull-down section says His6), label: fluorescent dye (fluorescein or Cy5), end label
Srs2ΔC (Srs2 1-898) [3] = target: T1, Srs2ΔC (Srs2 1-898); test: competition; FITC-ssDNA competitor against Cy5-ssDNA with 150 nM Srs2ΔC; value derived from text: 3 times higher than the 5 nM of 3' overhang; 30 mM Tris pH 7.5, 1 mM DTT, 0.1 mg/ml BSA, 100 mM KCl, 3 nM DNA, 30 °C 10 min; 7% native PAGE in 0.5x TBE; settings: protein: recombinant; tags: His9 (pull-down section says His6); label: fluorescein or Cy5, end label; single strand

T1 sequence (P12954 1-898, stated change not applied): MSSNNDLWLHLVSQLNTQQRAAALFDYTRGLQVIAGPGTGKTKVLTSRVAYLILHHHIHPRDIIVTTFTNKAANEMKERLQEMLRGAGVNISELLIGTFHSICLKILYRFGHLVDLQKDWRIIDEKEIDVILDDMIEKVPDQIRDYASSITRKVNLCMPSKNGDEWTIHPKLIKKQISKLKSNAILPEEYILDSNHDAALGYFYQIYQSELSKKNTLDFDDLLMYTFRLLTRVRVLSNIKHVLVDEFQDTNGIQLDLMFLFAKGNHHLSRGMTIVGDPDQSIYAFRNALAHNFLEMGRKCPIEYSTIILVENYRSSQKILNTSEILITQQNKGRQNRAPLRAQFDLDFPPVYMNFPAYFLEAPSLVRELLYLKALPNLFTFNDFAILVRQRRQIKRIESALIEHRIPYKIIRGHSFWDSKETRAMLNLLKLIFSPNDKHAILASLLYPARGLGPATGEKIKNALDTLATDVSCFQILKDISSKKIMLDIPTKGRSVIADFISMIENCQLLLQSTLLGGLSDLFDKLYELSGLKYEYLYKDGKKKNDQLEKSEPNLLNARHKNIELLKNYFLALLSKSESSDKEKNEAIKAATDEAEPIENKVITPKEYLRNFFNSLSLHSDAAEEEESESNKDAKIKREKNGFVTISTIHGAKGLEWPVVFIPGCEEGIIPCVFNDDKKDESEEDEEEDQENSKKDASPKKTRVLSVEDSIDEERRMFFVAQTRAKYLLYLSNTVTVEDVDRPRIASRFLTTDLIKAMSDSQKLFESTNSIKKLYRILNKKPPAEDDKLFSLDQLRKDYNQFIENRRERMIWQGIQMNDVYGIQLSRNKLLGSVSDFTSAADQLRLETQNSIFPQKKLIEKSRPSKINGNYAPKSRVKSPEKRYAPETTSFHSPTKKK

B1: 3' overhang (mixed)
DNA 1: AGCTACCATGCCTGCACGAATTAAGCAATTCGTAATCATGGTCATAGCT
DNA 2: AATTCGTGCAGGCATGGTAGCT
IC50 (Srs2ΔC (Srs2 1-898) [1]): ~5 nM

B2: 5' flap (fork with leading strand) (structured_DNA)
DNA 1: AGCTACCATGCCTGCACGAATTAAGCAATTCGTAATCATGGTCATAGCT
DNA 2: AGCTATGACCATGATTACGAATTGCTT
DNA 3: GATGTCAAGCAGTCCTAAGGAATTCGTGCAGGCATGGTAGCT
binding result (Srs2ΔC (Srs2 1-898) [2]; 5' flap): binds

AGCTACCATGCCTGCACGAATTAAGCAATTCGTAATCATGGTCATAGCT (ssDNA) [ssDNA]
IC50 (Srs2ΔC (Srs2 1-898) [3]): ~15 nM

B3: 5' overhang (mixed)
DNA 1: AGCTACCATGCCTGCACGAATTAAGCAATTCGTAATCATGGTCATAGCT
DNA 2: AGCTATGACCATGATTACGAATTGCTT
binding result (Srs2ΔC (Srs2 1-898) [2]): binds
